Values quoted from earlier work in paper PMC10673186.

Biological target: SIRPα (Homo sapiens) (UniProt P78324)
Chain of UniProt P78324 (P78324 31-373): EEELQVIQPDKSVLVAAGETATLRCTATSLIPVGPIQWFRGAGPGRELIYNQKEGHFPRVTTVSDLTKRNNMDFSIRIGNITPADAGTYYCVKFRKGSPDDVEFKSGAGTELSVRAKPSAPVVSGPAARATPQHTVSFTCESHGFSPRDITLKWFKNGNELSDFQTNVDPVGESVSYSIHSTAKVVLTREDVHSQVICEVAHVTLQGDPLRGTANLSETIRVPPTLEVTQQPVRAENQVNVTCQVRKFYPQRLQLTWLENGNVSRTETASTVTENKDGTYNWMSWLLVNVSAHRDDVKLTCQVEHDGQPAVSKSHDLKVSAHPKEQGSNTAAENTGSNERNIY

Kd: 1000 nM
Substance: CD47 (from UniProt Q08722)
